# Laboratory results as given in paper doi:10.1101/2025.10.04.680454.
# Columns and labels:
# [1] = biological target: all four evolved minibinders (purified proteins); assay: SPR
# [2] = biological target: Mb-4 (parental minibinder), N-terminal polyhistidine tag; assay: SPR
# [3] = biological target: Mb-1 (parental minibinder), N-terminal polyhistidine tag; assay: SPR
# [4] = biological target: evolved Mb-1 (affinity matured variant), N-terminal polyhistidine tag; assay: SPR
# [5] = biological target: Mb-1 P29S displayed on the yeast cell surface (minibinder-HA-AGA2); assay: flow cytometry on cells
# [6] = biological target: Mb-1 A14V displayed on the yeast cell surface (minibinder-HA-AGA2); assay: flow cytometry on cells
Kd [1] [nM],Kd [2] [nM],Kd [3] [nM],Kd [4] [nM],Δ-log10[KD] against parental Mb-1 [5],Δ-log10[KD] against parental Mb-1 [6],Binder
0.56 to 34,7.8,> 1000,2.1,,,human IL-7Rα extracellular domain (residues 37-231) with a C-terminal C-tag (domain or fragment) DYSFSCYSQLEVNGSQHSLTCAFEDPDVNITNLEFEICGALVEVKCLNFRKLQEIYFIETKKFLLIGKSNICVKVGEKSLTCKKIDLTTIVKPEAPFDLSVVYREGANDFVVTFNTSHLQKKYVKVLMHDVAYRQEKDENKWTHVNLSSTKLTLLQRKLQPAAMYEIKVRSIPDHYFKGFWSEWSPSYYFRTPEI
,,,,0.03,1.18,human IL-7Rα fused to a human IgG single-chain Fc tag (Fc fusion) ESGYAQNGDLEDAELDDYSFSCYSQLEVNGSQHSLTCAFEDPDVNITNLEFEICGALVEVKCLNFRKLQEIYFIETKKFLLIGKSNICVKVGEKSLTCKKIDLTTIVKPEAPFDLSVVYREGANDFVVTFNTSHLQKKYVKVLMHDVAYRQEKDENKWTHVNLSSTKLTLLQRKLQPAAMYEIKVRSIPDHYFKGFWSEWSPSYYFRTPEINNSSGEMD
